Among the data in paper PMC3245471 are chaperone foldase activity (G6PDH reactivation) relative to wild-type Trx f and stoichiometry N values, retold here.

By stoichiometry N is commonly meant the number of molecules, sites or subunits per partner or assembly.

For assay [1], the target named is glucose 6-phosphate dehydrogenase from Leuconostoc mesenteroides, guanidine-denatured (Leuconostoc mesenteroides) (UniProt P11411).
The target of assay [2] is tobacco Trx f C19/71S double mutant, His-tagged (Nicotiana tabacum). Briefly: non-reducing SDS-PAGE with Western blot. In general terms: Immunoblotting shows a protein as a band on a membrane.
Assay [3] has as its target tobacco Trx f C71S mutant, His-tagged (Nicotiana tabacum). Briefly: non-reducing SDS-PAGE with Western blot.

Chain of UniProt P11411 (P11411 whole entry): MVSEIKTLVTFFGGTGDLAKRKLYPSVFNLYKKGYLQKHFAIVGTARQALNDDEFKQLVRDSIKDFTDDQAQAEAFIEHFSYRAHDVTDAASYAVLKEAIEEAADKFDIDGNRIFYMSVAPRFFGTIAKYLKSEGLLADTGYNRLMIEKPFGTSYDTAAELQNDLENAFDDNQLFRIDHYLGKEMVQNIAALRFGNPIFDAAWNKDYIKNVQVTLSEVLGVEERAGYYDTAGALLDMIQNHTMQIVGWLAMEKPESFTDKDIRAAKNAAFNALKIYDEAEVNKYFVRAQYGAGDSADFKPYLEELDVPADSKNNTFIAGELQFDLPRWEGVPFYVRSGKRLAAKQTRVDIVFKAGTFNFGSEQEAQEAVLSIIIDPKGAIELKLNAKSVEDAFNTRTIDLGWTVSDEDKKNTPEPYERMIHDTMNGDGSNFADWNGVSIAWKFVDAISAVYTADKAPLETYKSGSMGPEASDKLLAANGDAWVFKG

In the case of “tobacco Trx f C19/71S double mutant, His-tagged (enzyme)”, the chaperone foldase activity (G6PDH reactivation) relative to wild-type Trx f in assay [1] was 80 % decrease. Moreover, the stoichiometry N in assay [2] stood at 2.
Substance “tobacco Trx f C71S mutant, His-tagged (enzyme)” came in with a chaperone foldase activity (G6PDH reactivation) relative to wild-type Trx f in assay [1] of 80 % decrease. In assay [3], this substance registered a stoichiometry N of 2.
